{"source": "paper PMC4148193", "about": "“Chromatin Insulator Factors Involved in Long-Range DNA Interactions and Their Role in the Folding of the Drosophila Genome” (PLoS Genetics, 2014)", "binders": {"B1": {"name": "DNAS (dsDNA)", "DNA 1": "AGAAGTCAGCGCGATAGCATCGATATTTTCGTGACACGCTTGTCATCCGATAGGTAGT", "DNA 2": "ACTACCTATCGGATGACAAGCGTGTCACGAAAATATCGATGCTATCGCGCTGACTTCT"}}, "key": {"CP190": {"target": "T1, CP190 (Drosophila, UniProt Q24478 1-1096)", "T1 sequence": "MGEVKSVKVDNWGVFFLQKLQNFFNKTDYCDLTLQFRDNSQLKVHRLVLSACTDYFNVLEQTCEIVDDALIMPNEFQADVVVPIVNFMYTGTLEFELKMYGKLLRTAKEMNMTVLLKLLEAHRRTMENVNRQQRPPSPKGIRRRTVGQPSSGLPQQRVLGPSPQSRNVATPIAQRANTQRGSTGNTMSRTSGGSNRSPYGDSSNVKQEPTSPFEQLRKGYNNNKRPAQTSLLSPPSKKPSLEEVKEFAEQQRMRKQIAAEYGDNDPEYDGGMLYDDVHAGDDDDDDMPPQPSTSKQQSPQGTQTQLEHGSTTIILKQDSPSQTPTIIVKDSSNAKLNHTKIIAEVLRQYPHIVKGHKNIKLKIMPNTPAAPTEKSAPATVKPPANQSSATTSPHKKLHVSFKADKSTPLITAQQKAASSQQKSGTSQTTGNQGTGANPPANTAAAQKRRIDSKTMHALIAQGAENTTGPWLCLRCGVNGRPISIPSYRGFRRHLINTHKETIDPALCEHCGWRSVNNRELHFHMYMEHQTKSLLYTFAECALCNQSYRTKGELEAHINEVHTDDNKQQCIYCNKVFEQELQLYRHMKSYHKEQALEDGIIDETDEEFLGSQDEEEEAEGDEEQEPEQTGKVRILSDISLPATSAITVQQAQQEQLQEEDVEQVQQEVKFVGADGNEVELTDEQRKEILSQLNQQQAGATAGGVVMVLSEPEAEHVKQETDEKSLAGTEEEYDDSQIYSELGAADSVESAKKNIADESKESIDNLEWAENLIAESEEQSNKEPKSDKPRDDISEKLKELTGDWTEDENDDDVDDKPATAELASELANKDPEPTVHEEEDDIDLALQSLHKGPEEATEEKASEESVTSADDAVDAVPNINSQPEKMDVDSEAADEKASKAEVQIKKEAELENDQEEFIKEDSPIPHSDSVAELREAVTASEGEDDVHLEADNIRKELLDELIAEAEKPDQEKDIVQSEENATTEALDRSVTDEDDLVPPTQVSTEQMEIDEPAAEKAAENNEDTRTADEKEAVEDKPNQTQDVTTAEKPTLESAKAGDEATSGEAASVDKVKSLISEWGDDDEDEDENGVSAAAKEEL", "test": "fluorescence anisotropy; Hill n=2±0.3; 20 uM ZnSO4; FA/FCS: 30 mM Tris/HCl pH 7.5, 100 mM NaCl, 20 uM ZnSO4, 5 mM mercaptoethanol, 0.01 mg/ml BSA, 0.004% Tween20, 2.5 nM DNA; EMSA: 150 mM NaCl, 30 mM Tris/HCl pH", "details": "protein: recombinant; tags: N-term 6xHis; blunt"}, "BEAF32 (BEAF32B);CP190-C": {"target": "T2, BEAF32 (BEAF32B);CP190-C (Drosophila;Drosophila, UniProt Q94513;Q24478 1-282;599-1096, |)", "T2 sequence 1": "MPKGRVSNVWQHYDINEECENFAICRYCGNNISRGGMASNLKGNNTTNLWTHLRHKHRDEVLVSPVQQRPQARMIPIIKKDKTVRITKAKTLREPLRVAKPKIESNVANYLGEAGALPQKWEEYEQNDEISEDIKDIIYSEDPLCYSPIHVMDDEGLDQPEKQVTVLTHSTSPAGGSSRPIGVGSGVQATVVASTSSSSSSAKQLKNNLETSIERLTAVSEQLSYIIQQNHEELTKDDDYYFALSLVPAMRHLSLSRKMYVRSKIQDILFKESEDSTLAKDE", "T2 sequence 2": "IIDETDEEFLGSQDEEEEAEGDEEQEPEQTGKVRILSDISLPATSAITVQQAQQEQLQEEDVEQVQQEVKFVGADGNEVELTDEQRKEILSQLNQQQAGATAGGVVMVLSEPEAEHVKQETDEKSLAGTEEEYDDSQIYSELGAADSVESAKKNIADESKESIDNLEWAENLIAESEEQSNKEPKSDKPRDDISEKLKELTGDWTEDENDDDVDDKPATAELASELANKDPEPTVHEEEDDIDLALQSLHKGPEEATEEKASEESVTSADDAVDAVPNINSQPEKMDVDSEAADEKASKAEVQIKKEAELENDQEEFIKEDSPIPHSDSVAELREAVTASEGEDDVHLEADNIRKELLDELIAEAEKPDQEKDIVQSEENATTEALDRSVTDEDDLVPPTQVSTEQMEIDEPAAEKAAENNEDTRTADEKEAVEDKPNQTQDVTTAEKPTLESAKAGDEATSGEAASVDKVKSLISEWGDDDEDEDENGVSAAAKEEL", "test": "FCS/PIE-FCCS; 400 nM BEAF32, 50 nM CP190-C; diffusion time slightly decreased, BEAF32 stays bound, no bridging; FA/FCS: 30 mM Tris/HCl pH 7.5, 100 mM NaCl, 20 uM ZnSO4, 5 mM mercaptoethanol, 0.01 mg/ml BSA, 0.004% Tween20, 2.5 nM DNA; EMSA: 150 mM NaCl, 30 mM Tris/HCl pH", "details": "protein: recombinant;recombinant; tags: N-term MBP; C-term 6xHis;N-term 6xHis; blunt"}}}
{"binder": "B1", "values": [{"measurement": "Kd", "setting": "CP190", "result": "109 ± 5", "unit": "nM"}, {"measurement": "binding result", "setting": "BEAF32 (BEAF32B);CP190-C", "result": "binds"}]}
